The target in test [1] is αvβ3 integrin, wild type, on mouse lung endothelial cells (WT EC) (mouse) (UniProt P43406). Kind of test: flow cytometry, FITC-fibrinogen on WT mouse lung EC, 1 mM MnCl2 against unstimulated cells. A general note: In flow cytometry, cells or beads pass a laser one at a time.
The target of test [2] is DiYF β3 integrin (αvβ3 with β3 tyrosines 747 and 759 substituted for phenylalanines), on DiYF mouse lung endothelial cells (mouse) (UniProt P43406). Briefly: flow cytometry, FITC-fibrinogen on DiYF mouse lung EC, 1 mM MnCl2 against unstimulated cells.
Test [3] has the same target. Briefly: flow cytometry, FITC-fibrinogen on DiYF mouse lung EC, 20 ng/ml VEGF against unstimulated cells.
The target in test [4] is αvβ3 integrin, wild type, on mouse lung endothelial cells (WT EC) (mouse) (UniProt P43406). Kind of test: flow cytometry, FITC-fibrinogen on WT mouse lung EC, 20 ng/ml VEGF against unstimulated cells (printed as 'at least').
For test [5], the target named is VEGF receptor-2 on mouse lung endothelial cells (mouse) (UniProt P35918). Briefly: cell-based or functional assay.
Test [6] addresses αvβ3 integrin on human endothelial cells (HUVEC; vasculature of human prostate tissue) (human) (UniProt P06756). Briefly: flow cytometry, WOW-1 Fab on HUVEC, VEGF-A165 against resting cells.
In test [7] the target is αvβ3 integrin, wild type, on mouse lung endothelial cells (WT EC) (mouse) (UniProt P43406). Briefly: flow cytometry, WOW-1 Fab on WT mouse lung EC, 1 mM MnCl2 against unstimulated cells.
Test [8] addresses DiYF β3 integrin (αvβ3 with β3 tyrosines 747 and 759 substituted for phenylalanines), on DiYF mouse lung endothelial cells (mouse) (UniProt P43406). Kind of test: flow cytometry, WOW-1 Fab on DiYF mouse lung EC, 1 mM MnCl2 against unstimulated cells.
Test [9] has as its target αvβ3 integrin, wild type, on mouse lung endothelial cells (WT EC) (mouse) (UniProt P43406). Kind of test: flow cytometry, WOW-1 Fab on WT mouse lung EC, 20 ng/ml VEGF against unstimulated cells.
For test [10], the target named is DiYF β3 integrin (αvβ3 with β3 tyrosines 747 and 759 substituted for phenylalanines), on DiYF mouse lung endothelial cells (mouse) (UniProt P43406). Briefly: flow cytometry, WOW-1 Fab on DiYF mouse lung EC, 20 ng/ml VEGF against unstimulated cells.
Test [11] deals with αvβ3 integrin on human endothelial cells (HUVEC; vasculature of human prostate tissue) (human) (UniProt P06756). Briefly: immunohistochemistry, WOW-1 staining density, prostate carcinoma against normal prostate tissue.
In test [12] the target is DiYF β3 integrin (αvβ3 with β3 tyrosines 747 and 759 substituted for phenylalanines), on DiYF mouse lung endothelial cells (mouse) (UniProt P43406). Briefly: cell-based or functional assay.
The target of test [13] is VEGFR-2 on human endothelial cells (HUVEC; vasculature of human prostate tissue) (human, UniProt P35968 20-1356). Briefly: cell-based or functional assay.
Sequence of VEGFR-2 on human endothelial cells (HUVEC; vasculature of human prostate tissue) (P35968 20-1356): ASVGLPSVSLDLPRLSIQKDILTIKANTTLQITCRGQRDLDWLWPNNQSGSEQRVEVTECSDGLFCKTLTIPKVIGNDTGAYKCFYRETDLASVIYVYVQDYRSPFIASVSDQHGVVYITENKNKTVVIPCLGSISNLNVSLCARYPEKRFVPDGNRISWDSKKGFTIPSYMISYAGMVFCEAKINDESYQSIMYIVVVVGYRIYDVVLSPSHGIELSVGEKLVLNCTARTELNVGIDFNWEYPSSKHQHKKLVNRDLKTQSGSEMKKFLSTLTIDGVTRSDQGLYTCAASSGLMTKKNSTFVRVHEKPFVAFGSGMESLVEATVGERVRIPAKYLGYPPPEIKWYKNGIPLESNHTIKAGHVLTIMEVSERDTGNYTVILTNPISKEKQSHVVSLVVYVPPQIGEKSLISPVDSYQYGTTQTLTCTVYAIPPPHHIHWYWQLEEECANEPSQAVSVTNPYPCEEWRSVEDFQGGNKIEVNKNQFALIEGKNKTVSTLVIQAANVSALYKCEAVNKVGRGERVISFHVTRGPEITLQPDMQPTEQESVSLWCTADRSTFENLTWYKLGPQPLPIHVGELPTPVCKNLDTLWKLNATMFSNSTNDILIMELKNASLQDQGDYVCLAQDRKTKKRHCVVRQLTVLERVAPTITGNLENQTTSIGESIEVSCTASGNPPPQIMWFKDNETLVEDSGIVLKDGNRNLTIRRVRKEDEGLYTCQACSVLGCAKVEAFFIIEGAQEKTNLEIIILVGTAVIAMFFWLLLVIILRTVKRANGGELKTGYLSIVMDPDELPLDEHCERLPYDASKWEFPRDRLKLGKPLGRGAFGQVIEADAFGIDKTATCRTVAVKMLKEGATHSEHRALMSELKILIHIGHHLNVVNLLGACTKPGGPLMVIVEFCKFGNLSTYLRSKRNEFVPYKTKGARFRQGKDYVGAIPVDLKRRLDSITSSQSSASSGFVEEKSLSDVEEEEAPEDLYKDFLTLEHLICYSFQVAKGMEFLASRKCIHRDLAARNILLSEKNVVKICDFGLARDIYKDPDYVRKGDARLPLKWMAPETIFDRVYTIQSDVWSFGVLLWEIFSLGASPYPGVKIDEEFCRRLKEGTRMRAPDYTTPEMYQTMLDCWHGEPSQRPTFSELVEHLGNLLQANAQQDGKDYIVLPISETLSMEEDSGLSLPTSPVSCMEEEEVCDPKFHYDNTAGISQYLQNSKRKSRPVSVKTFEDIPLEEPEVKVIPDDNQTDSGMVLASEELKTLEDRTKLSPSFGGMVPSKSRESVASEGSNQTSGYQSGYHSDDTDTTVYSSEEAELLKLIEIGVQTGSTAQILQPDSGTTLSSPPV

Sequence of VEGF receptor-2 on mouse lung endothelial cells (mouse) (P35918 20-1345): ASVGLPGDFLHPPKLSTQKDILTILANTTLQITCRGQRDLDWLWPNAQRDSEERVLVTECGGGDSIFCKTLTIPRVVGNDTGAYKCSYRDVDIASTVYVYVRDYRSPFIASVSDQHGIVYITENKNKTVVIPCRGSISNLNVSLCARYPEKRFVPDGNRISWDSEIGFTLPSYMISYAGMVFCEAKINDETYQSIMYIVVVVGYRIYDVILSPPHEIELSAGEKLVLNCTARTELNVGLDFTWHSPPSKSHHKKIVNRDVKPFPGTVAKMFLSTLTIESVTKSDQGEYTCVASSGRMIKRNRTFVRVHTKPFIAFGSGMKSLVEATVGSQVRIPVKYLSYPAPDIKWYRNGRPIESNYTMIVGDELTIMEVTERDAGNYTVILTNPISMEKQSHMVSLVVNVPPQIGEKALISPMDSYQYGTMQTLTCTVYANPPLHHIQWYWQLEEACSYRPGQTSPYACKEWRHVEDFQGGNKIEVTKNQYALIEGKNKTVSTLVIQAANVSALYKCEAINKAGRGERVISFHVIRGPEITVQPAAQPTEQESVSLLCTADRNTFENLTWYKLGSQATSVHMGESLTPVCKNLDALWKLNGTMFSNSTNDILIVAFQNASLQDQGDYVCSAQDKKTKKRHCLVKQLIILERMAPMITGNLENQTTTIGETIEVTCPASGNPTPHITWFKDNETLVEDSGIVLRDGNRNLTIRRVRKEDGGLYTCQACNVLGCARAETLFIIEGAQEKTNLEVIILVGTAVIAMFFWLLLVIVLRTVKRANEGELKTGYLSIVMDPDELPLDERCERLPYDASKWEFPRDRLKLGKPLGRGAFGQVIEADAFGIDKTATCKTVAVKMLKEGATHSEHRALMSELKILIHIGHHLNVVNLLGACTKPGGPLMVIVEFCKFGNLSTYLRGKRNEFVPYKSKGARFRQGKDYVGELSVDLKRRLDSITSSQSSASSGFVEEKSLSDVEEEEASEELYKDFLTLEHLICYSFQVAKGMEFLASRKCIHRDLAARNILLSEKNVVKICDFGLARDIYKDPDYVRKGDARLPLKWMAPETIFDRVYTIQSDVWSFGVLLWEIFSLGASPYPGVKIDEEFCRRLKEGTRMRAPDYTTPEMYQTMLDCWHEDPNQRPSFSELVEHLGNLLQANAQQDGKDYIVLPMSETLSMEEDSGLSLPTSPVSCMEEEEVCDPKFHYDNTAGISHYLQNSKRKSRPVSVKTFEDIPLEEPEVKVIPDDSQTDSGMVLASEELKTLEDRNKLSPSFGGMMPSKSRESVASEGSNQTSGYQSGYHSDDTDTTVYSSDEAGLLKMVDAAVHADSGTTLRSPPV

As for “Fluorescein isothiocyanate (FITC)-labeled fibrinogen (ligand)”, the fold increase of binding in [1] is greater than 40 fold; in [2] it was 17 fold; in test [3], 3 fold; in [4] it was 6 fold.
Take VEGF-A165 (ligand): in test [5], the VEGFR-2 phosphorylation in DiYF EC (immunoprecipitation, anti-phosphotyrosine blot) turned out to be 2.5 fold and the VEGFR-2 phosphorylation in WT EC (immunoprecipitation, anti-phosphotyrosine blot) amounted to 6 fold.
As to WOW-1 Fab, the fold increase of binding came to 6 fold in test [6]; 30 fold in [7]; 14 fold in test [8]; 9 fold in test [9]; 3.5 fold in test [10]. This molecule registered a fold increase of WOW-1 density in test [11] of 2.7 fold.
Turning to vitronectin (ligand), in test [12], the fold decrease in adhesion of DiYF EC to vitronectin-coated wells, against WT EC was found to be 2 fold and the fold decrease in spreading of DiYF EC on vitronectin-coated wells, against WT EC is 4 fold.

B1: αvβ3 integrin on human endothelial cells (HUVEC; vasculature of human prostate tissue) (receptor)
chain 1: FNLDVDSPAEYSGPEGSYFGFAVDFFVPSASSRMFLLVGAPKANTTQPGIVEGGQVLKCDWSSTRRCQPIEFDATGNRDYAKDDPLEFKSHQWFGASVRSKQDKILACAPLYHWRTEMKQEREPVGTCFLQDGTKTVEYAPCRSQDIDADGQGFCQGGFSIDFTKADRVLLGGPGSFYWQGQLISDQVAEIVSKYDPNVYSIKYNNQLATRTAQAIFDDSYLGYSVAVGDFNGDGIDDFVSGVPRAARTLGMVYIYDGKNMSSLYNFTGEQMAAYFGFSVAATDINGDDYADVFIGAPLFMDRGSDGKLQEVGQVSVSLQRASGDFQTTKLNGFEVFARFGSAIAPLGDLDQDGFNDIAIAAPYGGEDKKGIVYIFNGRSTGLNAVPSQILEGQWAARSMPPSFGYSMKGATDIDKNGYPDLIVGAFGVDRAILYRARPVITVNAGLEVYPSILNQDNKTCSLPGTALKVSCFNVRFCLKADGKGVLPRKLNFQVELLLDKLKQKGAIRRALFLYSRSPSHSKNMTISRGGLMQCEELIAYLRDESEFRDKLTPITIFMEYRLDYRTAADTTGLQPILNQFTPANISRQAHILLDCGEDNVCKPKLEVSVDSDQKKIYIGDDNPLTLIVKAQNQGEGAYEAELIVSIPLQADFIGVVRNNEALARLSCAFKTENQTRQVVCDLGNPMKAGTQLLAGLRFSVHQQSEMDTSVKFDLQIQSSNLFDKVSPVVSHKVDLAVLAAVEIRGVSSPDHVFLPIPNWEHKENPETEEDVGPVVQHIYELRNNGPSSFSKAMLHLQWPYKYNNNTLLYILHYDIDGPMNCTSDMEINPLRIKISSLQTTEKNDTVAGQGERDHLITKRDLALSEGDIHTLGCGVAQCLKIVCQVGRLDRGKSAILYVKSLLWTETFMNKENQNHSYSLKSSASFNVIEFPYKNLPIEDITNSTLVTTNVTWGIQPAPMPVPVWVIILAVLAGLLLLAVLVFVMYRMGFFKRVRPPQEEQEREQLQPHENGEGNSET
chain 2: GPNICTTRGVSSCQQCLAVSPMCAWCSDEALPLGSPRCDLKENLLKDNCAPESIEFPVSEARVLEDRPLSDKGSGDSSQVTQVSPQRIALRLRPDDSKNFSIQVRQVEDYPVDIYYLMDLSYSMKDDLWSIQNLGTKLATQMRKLTSNLRIGFGAFVDKPVSPYMYISPPEALENPCYDMKTTCLPMFGYKHVLTLTDQVTRFNEEVKKQSVSRNRDAPEGGFDAIMQATVCDEKIGWRNDASHLLVFTTDAKTHIALDGRLAGIVQPNDGQCHVGSDNHYSASTTMDYPSLGLMTEKLSQKNINLIFAVTENVVNLYQNYSELIPGTTVGVLSMDSSNVLQLIVDAYGKIRSKVELEVRDLPEELSLSFNATCLNNEVIPGLKSCMGLKIGDTVSFSIEAKVRGCPQEKEKSFTIKPVGFKDSLIVQVTFDCDCACQAQAEPNSHRCNNGNGTFECGVCRCGPGWLGSQCECSEEDYRPSQQDECSPREGQPVCSQRGECLCGQCVCHSSDFGKITGKYCECDDFSCVRYKGEMCSGHGQCSCGDCLCDSDWTGYYCNCTTRTDTCMSSNGLLCSGRGKCECGSCVCIQPGSYGDTCEKCPTCPDACTFKKECVECKKFDRGALHDENTCNRYCRDEIESVKELKDTGKDAVNCTYKNEDDCVVRFQYYEDSSGKSILYVVEEPECPKGPDILVVLLSVMGAILLIGLAALLIWKLLITIHDRKEFAKFEEERARAKWDTANNPLYKEATSTFTNITYRGT
As to B1, in test [13], the “fold decrease in VEGFR-2 phosphorylation in response to VEGF in HUVEC after β3 siRNA” value is roughly 3 fold.
